In publication PMC5802723, “Pro-metastatic collagen lysyl hydroxylase dimer assemblies stabilized by Fe^2+-binding” (Nature Communications, 2018):

B1: Human LH2 recombinant protein (residues 33-758), wild type (enzyme, UniProt O00469-2 33-758, looked up)
chain: SIPTDKLLVITVATKESDGFHRFMQSAKYFNYTVKVLGQGEEWRGGDGINSIGGGQKVRLMKEVMEHYADQDDLVVMFTECFDVIFAGGPEEVLKKFQKANHKVVFAADGILWPDKRLADKYPVVHIGKRYLNSGGFIGYAPYVNRIVQQWNLQDNDDDQLFYTKVYIDPLKREAINITLDHKCKIFQTLNGAVDEVVLKFENGKARAKNTFYETLPVAINGNGPTKILLNYFGNYVPNSWTQDNGCTLCEFDTVDLSAVDVHPNVSIGVFIEQPTPFLPRFLDILLTLDYPKEALKLFIHNKEVYHEKDIKVFFDKAKHEIKTIKIVGPEENLSQAEARNMGMDFCRQDEKCDYYFSVDADVVLTNPRTLKILIEQNRKIIAPLVTRHGKLWSNFWGALSPDGYYARSEDYVDIVQGNRVGVWNVPYMANVYLIKGKTLRSEMNERNYFVRDKLDPDMALCRNAREMTLQREKDSPTPETFQMLSPPKGVFMYISNRHEFGRLLSTANYNTSHYNNDLWQIFENPVDWKEKYINRDYSKIFTENIVEQPCPDVFWFPIFSEKACDELVEEMEHYGKWSGGKHHDSRISGGYENVPTDDIHMKQVDLENVWLHFIREFIAPVTLKVFAGYYTKGFALLNFVVKYSPERQRSLRPHHDASTFTINIALNNVGEDFQGGGCKFLRYNCSIESPRKGWSFMHPGRLTHLHEGLPVKNGTRYIAVSFIDP
notes: Human lysyl hydroxylase 2 (LH2), residues 33-758; the printed end at 758 and the residues D689 and L735 fit the 758-residue isoform; also called lysyl hydroxylase 2; source: ExpiCHO cells, transient transfection, secreted

Columns and labels:
[1] = target: bovine skin collagen substrate containing no telopeptides (Bovine PureCol) (bovine) (UniProt P02453)
Sequence of bovine skin collagen substrate containing no telopeptides (Bovine PureCol) (bovine) (P02453 162-1217, chain 1 of 2): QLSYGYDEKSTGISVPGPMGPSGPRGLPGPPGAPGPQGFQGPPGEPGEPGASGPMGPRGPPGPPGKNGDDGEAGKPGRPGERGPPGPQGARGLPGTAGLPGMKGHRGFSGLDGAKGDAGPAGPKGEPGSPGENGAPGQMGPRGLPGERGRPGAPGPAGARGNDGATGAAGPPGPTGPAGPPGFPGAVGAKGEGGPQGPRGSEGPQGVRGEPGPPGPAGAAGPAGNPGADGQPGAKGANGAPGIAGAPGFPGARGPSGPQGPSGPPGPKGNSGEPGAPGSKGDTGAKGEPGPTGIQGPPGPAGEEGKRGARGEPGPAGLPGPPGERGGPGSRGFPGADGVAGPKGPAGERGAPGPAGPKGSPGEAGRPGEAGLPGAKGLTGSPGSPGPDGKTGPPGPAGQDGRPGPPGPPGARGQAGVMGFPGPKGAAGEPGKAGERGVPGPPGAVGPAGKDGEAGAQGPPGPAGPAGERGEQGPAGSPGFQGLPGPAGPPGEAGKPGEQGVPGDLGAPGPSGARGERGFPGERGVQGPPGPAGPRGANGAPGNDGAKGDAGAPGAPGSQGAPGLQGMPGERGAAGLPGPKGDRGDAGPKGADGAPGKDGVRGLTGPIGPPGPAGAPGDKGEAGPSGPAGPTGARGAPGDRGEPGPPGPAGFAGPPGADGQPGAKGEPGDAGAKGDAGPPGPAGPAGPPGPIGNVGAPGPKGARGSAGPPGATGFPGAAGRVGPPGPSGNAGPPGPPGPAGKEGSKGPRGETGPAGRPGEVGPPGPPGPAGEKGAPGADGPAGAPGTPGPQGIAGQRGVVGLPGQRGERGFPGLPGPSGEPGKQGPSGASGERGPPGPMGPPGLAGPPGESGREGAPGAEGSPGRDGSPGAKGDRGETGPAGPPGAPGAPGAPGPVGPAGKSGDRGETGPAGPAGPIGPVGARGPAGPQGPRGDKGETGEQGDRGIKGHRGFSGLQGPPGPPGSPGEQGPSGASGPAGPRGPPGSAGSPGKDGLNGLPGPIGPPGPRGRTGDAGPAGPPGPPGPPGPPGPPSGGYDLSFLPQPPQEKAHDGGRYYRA
Sequence of bovine skin collagen substrate containing no telopeptides (Bovine PureCol) (bovine) (P02465 80-1117, chain 2 of 2, further chain): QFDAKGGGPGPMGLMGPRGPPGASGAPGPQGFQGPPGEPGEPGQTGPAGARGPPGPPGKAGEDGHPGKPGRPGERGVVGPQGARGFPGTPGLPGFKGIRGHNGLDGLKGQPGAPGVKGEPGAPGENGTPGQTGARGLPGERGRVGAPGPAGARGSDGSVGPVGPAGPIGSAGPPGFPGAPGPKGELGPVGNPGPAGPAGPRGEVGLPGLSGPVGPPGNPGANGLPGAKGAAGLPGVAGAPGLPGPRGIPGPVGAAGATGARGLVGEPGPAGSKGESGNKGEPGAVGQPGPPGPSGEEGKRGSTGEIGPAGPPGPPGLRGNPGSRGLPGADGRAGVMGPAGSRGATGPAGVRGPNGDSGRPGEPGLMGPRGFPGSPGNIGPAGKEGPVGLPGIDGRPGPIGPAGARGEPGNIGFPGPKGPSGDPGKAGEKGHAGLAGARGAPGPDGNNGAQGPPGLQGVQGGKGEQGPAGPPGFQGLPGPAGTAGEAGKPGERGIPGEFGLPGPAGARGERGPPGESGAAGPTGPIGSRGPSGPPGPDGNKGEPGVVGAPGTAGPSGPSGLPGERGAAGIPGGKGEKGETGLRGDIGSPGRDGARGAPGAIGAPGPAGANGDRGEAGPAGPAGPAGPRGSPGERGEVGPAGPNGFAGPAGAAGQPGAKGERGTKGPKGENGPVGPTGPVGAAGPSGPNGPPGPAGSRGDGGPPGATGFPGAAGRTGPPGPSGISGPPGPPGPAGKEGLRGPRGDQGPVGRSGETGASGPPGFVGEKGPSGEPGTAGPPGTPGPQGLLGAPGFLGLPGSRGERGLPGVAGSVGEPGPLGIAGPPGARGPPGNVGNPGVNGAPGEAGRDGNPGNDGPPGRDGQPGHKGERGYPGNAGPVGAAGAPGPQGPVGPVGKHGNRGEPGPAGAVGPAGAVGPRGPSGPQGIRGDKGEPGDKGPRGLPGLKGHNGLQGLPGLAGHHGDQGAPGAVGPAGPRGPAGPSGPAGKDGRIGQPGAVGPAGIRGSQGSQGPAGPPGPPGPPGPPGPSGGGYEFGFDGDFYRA

[2] = target: L230 LH domain (amino acids 680-895), wild type (Acanthamoeba polyphaga mimivirus); experiment: SAXS; L230 LH domain in solution, three concentrations diluted from 6 mg/ml, merged; SIBYLS beamline
[3] = target: L230 LH domain (amino acids 680-895), wild type (Acanthamoeba polyphaga mimivirus); experiment: SEC-MALS; L230 variants, 3 mg/ml, 150 ul, Superdex 75; 20 mM Tris pH 8, 200 mM NaCl, 0.02% sodium azide, room temperature
[4] = target: L230 LH domain (amino acids 680-895), wild type (Acanthamoeba polyphaga mimivirus); experiment: MST; Atto647-labelled L230 (40 nM, 10 ul) mixed with equal volume of unlabelled L230 (8.5 uM-0.5 nM); incubated at 25 °C for 15 min, measured at 20 °C; dimer to monomers
[5] = target: the molecule itself; experiment: SEC-MALS; Human LH2 proteins, 2 mg/ml, 100 ul, Superdex 200; 20 mM Tris pH 8, 200 mM NaCl, 0.02% sodium azide, room temperature

| Molecule | estimated Km for bovine skin collagen in the enzymatic assay (succinate production); achievable collagen concentrations did not saturate activity [1] [µM] | stoichiometry N [2] | stoichiometry N [3] | Kd [4] [µM] | binding result [5] |
| --- | --- | --- | --- | --- | --- |
| L230 LH domain (amino acids 680-895) K804E (domain or fragment) | 9.6 | – | – | – | – |
| L230 LH domain (amino acids 680-895), wild type (domain or fragment) | 2.6 | 2 | 2 | 0.0239 | – |
| B1 | – | – | – | – | binds |
